# Assay: yeast display, Sf9 membrane polyspecificity reagent, FACS + sequencing; frameworks hold sequencing errors
# Summary of the method: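 Sorting gates, low and high (top ~1%), were placed on anti-HA fluorescence to track expression and on streptavidin fluorescence to track reagent binding. A clone's polyreactivity label is taken from the gate it came out of. The reagent was 10% biotinylated, detergent-solubilized Sf9 membrane, applied for 1 hour at 4 °C to galactose-induced yeast display cells.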
row,Sequence,polyreactivity (PSR sort gate)
1,QVQLQESGCGLVQAGGSLRLSCAASGYISSWYPMGWYRQAPGKEREFVATIAPGATTYYADSVKGRFTISRDYSINTVYLQMNSLKPEDTAVYYCAAGPENNDFYSYWGQGTQVTVSS,low polyreactivity
2,QVQLQESGDGLVQAGGSLRLSCAASGTIFTPHQMGWYRQAPGNEREFVATIDYGSSTNYADSLKGLFTISRDNAKNTMYPQMNSLKPEDTAVYYCANYYWGQGTQVTVSS,low polyreactivity
3,QVQLQESGGGKVHAGGSLRLSCAASGSISYASGMVWYRQAPGKEREFVASIDPGAITNYADSVKGRFTNSHDNAKNTVYLQMNSLKPEDTAVYYCAARVSTTDSHGYWGQGTQVTVSS,high polyreactivity
4,QVQLQESGGGLEQAGGSLRLSCAASGTNTVLYKMGWFRQAPGKEREFVASINFGTSTYYADSVKGRFTDSRDSAINTVFLHMNSLKPEDTSVYYCAAAYRWQDFYRYWGQGTQVTVSS,low polyreactivity
5,QVQLQESGGGLEQAGGSLRLSCAASGYISDIGTMGWYRQAPGKEREFVATLVVGSTTNYADSVKGRFTISRDNAKNTVYLQPESGRYRGVLLRGWLLAVGKFTYWGQGTQETVSS,low polyreactivity
6,QVQLQESGGGLEQAGGSLRLTCAASGNISVTGFMGWYRQEPGKEREIVASIGIGGTTYYADSVKGRFYISRDNAKNTVYLQMNSLKPEDTAVYYCADRYLYYAYSYWCQGTQVTVSS,low polyreactivity
7,QVQLQESGGGLLQVGGSLRLSCAASGTIFIYGFLGWNRQAPGKERELVASINLGGITNYADSVKGRFTISRDNAKKTVYLQMISLKPEDTAVYYCAAYVVTGQNYGYWGQGTQVTVSS,low polyreactivity
8,QVQLQESGGGLMQAGGSQRLSCAASGSISYYSDMGWYRQAPGKEREFVAGIGYGTTTNYADSVKGRFTTSRDNAKKTVYLQMISIKPEDTAVYYCAAYQGNGYEFYYWGQGTQVTVRS,low polyreactivity
9,QVQLQESGGGLVKAGGSLRLSCAASGNISPRDAMGWYRQAPGEERDLVASNAYSAITYYADCVKGRYTISRDNAKNTVYLQINSLKPEDTEVYYCAVYQFTYPVFPAYWGQGTQVTVSS,low polyreactivity
10,QVQLQESGGGLVKAGGSLRLSCAASGNISPRDAMGWYRQAPGEERDLVASNPYSAITYYADGVKGRYTISRDNAKNTVYLQMNSLKPEDTEVYYCAVYQFTYAVFPAYWGQGSQVTVSS,low polyreactivity
11,QVQLQESGGGLVLAGGSLRLSCAASGSISAQAYMGWDRQAPGKEREHVAGINYGDNTNYADSVKGRFTISRDNEHRVSADEQPETGRYRGVLLRGFLELFYYYIYWGQGTQVTVSS,high polyreactivity
12,QVQLQESGGGLVLAGGSLRLSCSASGNISVYGSMGWYRQSPGKEREFVATIDPGTNTNYADSVKDRFTISRDYAKNSVYLQMNSLKPEDTAVYYCAVEAGSDWPYRYWGQGTQVTVSS,low polyreactivity
13,QVQLQESGGGLVQACGSLCLICAASSYFSTYYSMGWYRKAPSKGRELVAAIDSGSSTNYADSVEGRFTISRDNAKNTVYLQMISLKPGDTAVYYCAAPWGHLVVHPYRGQGTQVTVSS,high polyreactivity
14,QVQLQESGGGLVQACGSLRLSCAASGYIFSHQYMGLYRQAPGKERELVASISPGATTNYADSVKGRLTISRDNAKNTVYLQMNSLKPEDTAVYYYAVYQILDRRLSYWGQGTQVTVSC,high polyreactivity
15,QVQLQESGGGLVQAGDSQRLSCAASGNIFRFTDRGWYRQAPGKERELVAAINAGSTTYYADSVKGRFTISRDNAKNTVYLQMNSLKPEDTAVYYCAVYYLGSGTFGYWGQGAQVTVSS,high polyreactivity
16,QVQLQESGGGLVQAGGCLSCTASGTIFGQGDMGWYRPAPGKERELVATINDGASTYYADSVKGRFTISRDKAKNTVYLQKNSLNQDDTAVYYCAVFTDITTYFGYWGQGTQVTVSS,low polyreactivity
17,QVQLQESGGGLVQAGGGLRLSCAASGSILNQAPMGWYRQAPGKERELVATINEGSITNYADSVKGRFTISRDNAKNTVYLQMNSLKPEDTAVYYCAVNKYIGLDYHYWGQGTQVTVSS,low polyreactivity
18,QVQLQESGGGLVQAGGGLRLSCAASGTISGPHVMGWYRQAPGKEREFVAAINVGANTYYADNVKGRFTISRDNAKNTVYLQMNSLNPEDTAVYYCAAVYYGDIGHEYWGQGTQVTVSC,low polyreactivity
19,QVQLQESGGGLVQAGGSLCLSCAASSYFSTYYSMGSYRKAPSKGRELVAAIDSGSSTNYADSVEGRFTISRDNAKNTVYLQMNSLKPGDTAVYYCAARDDARRGFYYWGQGTQVTVSS,high polyreactivity
20,QVQLQESGGGLVQAGGSLLSCAASGTISWVDEMGWYRQAPGNERELVAGIAGGGNTNYADSVKGRFTISRDNAKNTVYLKMNSLDTAVYYCAVVGFGRGTHIYWGQGTQVTVSS,high polyreactivity
21,QVQLQESGGGLVQAGGSLLSCAASGTISWVDEMGWYRQAPGNERELVAGIAGGGNTNYADSVKGRFTISRDNAKNTVYLLMNSLDTAVYYCAVVGFGRGNHIYWGQGTQVTVSS,high polyreactivity

row,Sequence,polyreactivity (PSR sort gate)
1,QVQLQESGGGLVQAGGSLLSCAASGTISYYREMGWYRQSPGKERELVAGIGVGTITYYADSVKGRFTISRDNAKNTVYLQMNSLKPEDTAVYYCAAHIDGNDSNAYWGQGTQVTVSS,low polyreactivity
2,QVQLQESGGGLVQAGGSLRLICAASGYISSWYPMGWYRQAPGKEREFVGTIAPGATTYYADSVKGRFTIIRDYEKNTVYLQMNSLKPEDTAVYYCAAGPENNDFYSYWGQGTQVTVSS,low polyreactivity
3,QVQLQESGGGLVQAGGSLRLRCAASGTISDRAGMGWYRQAPAKNAIVATIDRGTNTNYADSVKGRFTISRDNAKNTVYLQMNSLKPEDTAVYNCAADGRYYIYLDYWGQGTQVTVSS,low polyreactivity
4,QVQLQESGGGLVQAGGSLRLSCAASGNIFEADIMGWNHQAQGKERELVASITDGGSTNYADSVKGRFTINRDNAKNNVYLQMNSLKPEDTAVYYCAAFAYPDIPTYFDYDIFTYWGQGTQVTVSS,high polyreactivity
5,QVQLQESGGGLVQAGGSLRLSCAASGNIFEADIMGWYHQAQGKERELVASITDGGSTNYADSVKGRFTINRDNAKNNVYLQMNSLKPADTAVYYCAAIAYPDIPTYFDYDSDYFYWGQGTQVTVSS,high polyreactivity
6,QVQLQESGGGLVQAGGSLRLSCAASGNIFLGDTMGWYRQAPGKEREFVAAIARGGNPYYADSVKGRFTISRNNANNTVYLQKNSLKTEDTAVHYCAVQRSHASDYNYWCQGTQVTVSS,low polyreactivity
7,QVQLQESGGGLVQAGGSLRLSCAASGNISPQLYMGWYRQAQGKEREFVAAIAEGSTTYYAESVKGRFTISRDDAKNTVYLQINSLKSEDTAVYYCAARYENAESFYYWGQGSQVTVSS,high polyreactivity
8,QVQLQESGGGLVQAGGSLRLSCAASGNISQVGVMGWYRQAPGKERELVATINFGGSSYYADSVKGRFTISRDNAKITVYLQMNSLKPEDTAVSYCNAKAYVWYLYDEFGYWGQGTQVTVSS,low polyreactivity
9,QVQLQESGGGLVQAGGSLRLSCAASGNISVTGFMGWYRQAPGKERELVASIGIGGTTYYADSVKGRFSISRDNAKNTVYLQMNSLKPEDTAVYYCAARYLYYAYSYWGQATQVTVSS,low polyreactivity
10,QVQLQESGGGLVQAGGSLRLSCAASGNIVDADIMGWYRQAPGKERELVASITDGGSTNYADSVKGRFTISRDNAKNTVYLQMNSLKPEDTAVYYCAAIAYPDIPTYFDYDSEYFYWGQGTQVTVSS,low polyreactivity
11,QVQLQESGGGLVQAGGSLRLSCAASGNIVVADIMGWYRQAPGKERELVASITDGGSTNYADNVKGRFTISRDNAKNTVYLQMNSLIPEDTAVYYCAANAFPDIPTYFVYDYDYFYWGQGTQVTVSG,high polyreactivity
12,QVQLQESGGGLVQAGGSLRLSCAASGSIARYYDMGWYLQAPGKEREFVAGISGGAISYYADSVKGRLTISRDNAKNTVYLQMNSLKPEDTAVYYCAADTCVYQYHSYWGQGTQVTVSS,low polyreactivity
13,QVQLQESGGGLVQAGGSLRLSCAASGSIFEELDMGWYRQAPGKEREFVAAIGTGSTTYYADSVKGRFTISRDNAKNTVYLQMNSLKPEDTAVYYCAVTYSVYLPFRYWGQGTQVTVSS,high polyreactivity
14,QVQLQESGGGLVQAGGSLRLSCAASGSIFHLHIMCWYRQAPGKERESVAAISNGTSTYYADSVKGRFTICRDNAKNTVYLQMNSPKPDDTAVYYCAALFLVSKHHHYWGEGTQVTVSS,low polyreactivity
15,QVQLQESGGGLVQAGGSLRLSCAASGSIIEELDMAWYRQAPGKEREFVAAIGTGSTTYYADSVKGRFTSSRDNAKNTVYLQMNSLKPEDTAVYYCAVTYSVYLPFRYWGQGTQVTVSS,high polyreactivity
16,QVQLQESGGGLVQAGGSLRLSCAASGSISGPHVMGWSRQAPGKEREFVAAINVGANTYYADNVKGRFTISRDNAKNTVYLRMNSLKPEDTAVYYCAAVYYGDIGHEYWGQGTQVTVSC,low polyreactivity
17,QVQLQESGGGLVQAGGSLRLSCAASGSISGPHVMGWYRQAPGKEREFVAAINVGANTYYADNVKGRFTISRDNAINTVYLQMNSLKTEDTAVYYCAAVYYGDIGHEYWGQGTQVTVSC,low polyreactivity
18,QVQLQESGGGLVQAGGSLRLSCAASGSISGPHVMGWYRQAPGKVREFVAAINVGANTYYADNVKGRFTISRDNAKNTVYLQMNSLKPEDTAVYYCAAAYYGDIGHEYWGQGTQVTVSS,low polyreactivity
19,QVQLQESGGGLVQAGGSLRLSCAASGSISHYIFMGWYRQAPGKQREFVAGIGYGGTTNYADSVKGRFTISRDNAKNTVYLQRNSLKPEDTGMYYCAAREATEFYLYYWGQGTQVTVSS,low polyreactivity
20,QVQLQESGGGLVQAGGSLRLSCAASGSISILQSMGWYRQAPGKERELVAGINWGATTYYADSVKGRLTTSRDYAKNTVYLQLNSLKPEDTGVYYCAFQTYFTYPLLYWGQGTQVNVSS,low polyreactivity
